From paper PMC7253899 (Saudi Journal of Biological Sciences, 2020) come the findings set out here.

The series deals with the molecule itself. As to the kind of experiment: SEC-MALS.

B1: TRAIP Leucine zipper domain (198-280 a.a) (domain or fragment, human, UniProt Q9BWF2 198-280, looked up)
chain: AVYCVSLKKEYENLKEARKASGEVADKLRKDLFSSRSKLQTVYSELDQAKLELKSAQKDLQSADKEIMSLKKKLTMLQETLNL
Consider B1, for which the “stoichiometry N” value is 3.
